The chains are these.
B1: CFP0011 11L 91Y (antibody, V domains shown)
VH: QVQLVQSGAEVKKPGSSVKVSCKASGGTFSSYAISWVRQAPGQGLEWMGGIIPIFGTANYAQKFQGRVTITADESTSTAYMELSSLRSEDTAVYYCARDMSEFLGWSNYYSYPMDVWGQGTTVTVSS
VL: DIQMTQSPSSLSASVGDRVTITCRASQSIEDDLAWYQQKPGKAPKLLIYHASSLQSGVPSRFSGSGSGTDFTLTISSLQPEDFATYYCQQYDNSPYTFGQGTKVEIK
B2: CFP0011 11L 92S (antibody, V domains shown)
VH: QVQLVQSGAEVKKPGSSVKVSCKASGGTFSSYAISWVRQAPGQGLEWMGGIIPIFGTANYAQKFQGRVTITADESTSTAYMELSSLRSEDTAVYYCARDMSEFLGWSNYYSYPMDVWGQGTTVTVSS
VL: DIQMTQSPSSLSASVGDRVTITCRASQSIEDDLAWYQQKPGKAPKLLIYHASSLQSGVPSRFSGSGSGTDFTLTISSLQPEDFATYYCQQSSNSPYTFGQGTKVEIK
B3: CFP0011 11L 94T (antibody, V domains shown)
VH: QVQLVQSGAEVKKPGSSVKVSCKASGGTFSSYAISWVRQAPGQGLEWMGGIIPIFGTANYAQKFQGRVTITADESTSTAYMELSSLRSEDTAVYYCARDMSEFLGWSNYYSYPMDVWGQGTTVTVSS
VL: DIQMTQSPSSLSASVGDRVTITCRASQSIEDDLAWYQQKPGKAPKLLIYHASSLQSGVPSRFSGSGSGTDFTLTISSLQPEDFATYYCQQSDNTPYTFGQGTKVEIK
B4: CFP0011 11L 93S (antibody, V domains shown)
VH: QVQLVQSGAEVKKPGSSVKVSCKASGGTFSSYAISWVRQAPGQGLEWMGGIIPIFGTANYAQKFQGRVTITADESTSTAYMELSSLRSEDTAVYYCARDMSEFLGWSNYYSYPMDVWGQGTTVTVSS
VL: DIQMTQSPSSLSASVGDRVTITCRASQSIEDDLAWYQQKPGKAPKLLIYHASSLQSGVPSRFSGSGSGTDFTLTISSLQPEDFATYYCQQSDSSPYTFGQGTKVEIK
B5: CFP0011 11L 93G (antibody, V domains shown)
VH: QVQLVQSGAEVKKPGSSVKVSCKASGGTFSSYAISWVRQAPGQGLEWMGGIIPIFGTANYAQKFQGRVTITADESTSTAYMELSSLRSEDTAVYYCARDMSEFLGWSNYYSYPMDVWGQGTTVTVSS
VL: DIQMTQSPSSLSASVGDRVTITCRASQSIEDDLAWYQQKPGKAPKLLIYHASSLQSGVPSRFSGSGSGTDFTLTISSLQPEDFATYYCQQSDGSPYTFGQGTKVEIK
B6: CFP0011 11L 94Y (antibody, V domains shown)
VH: QVQLVQSGAEVKKPGSSVKVSCKASGGTFSSYAISWVRQAPGQGLEWMGGIIPIFGTANYAQKFQGRVTITADESTSTAYMELSSLRSEDTAVYYCARDMSEFLGWSNYYSYPMDVWGQGTTVTVSS
VL: DIQMTQSPSSLSASVGDRVTITCRASQSIEDDLAWYQQKPGKAPKLLIYHASSLQSGVPSRFSGSGSGTDFTLTISSLQPEDFATYYCQQSDNYPYTFGQGTKVEIK
B7: CFP0011 11L 93D (antibody, V domains shown)
VH: QVQLVQSGAEVKKPGSSVKVSCKASGGTFSSYAISWVRQAPGQGLEWMGGIIPIFGTANYAQKFQGRVTITADESTSTAYMELSSLRSEDTAVYYCARDMSEFLGWSNYYSYPMDVWGQGTTVTVSS
VL: DIQMTQSPSSLSASVGDRVTITCRASQSIEDDLAWYQQKPGKAPKLLIYHASSLQSGVPSRFSGSGSGTDFTLTISSLQPEDFATYYCQQSDDSPYTFGQGTKVEIK
B8: CFP0011 11L 93R (antibody, V domains shown)
VH: QVQLVQSGAEVKKPGSSVKVSCKASGGTFSSYAISWVRQAPGQGLEWMGGIIPIFGTANYAQKFQGRVTITADESTSTAYMELSSLRSEDTAVYYCARDMSEFLGWSNYYSYPMDVWGQGTTVTVSS
VL: DIQMTQSPSSLSASVGDRVTITCRASQSIEDDLAWYQQKPGKAPKLLIYHASSLQSGVPSRFSGSGSGTDFTLTISSLQPEDFATYYCQQSDRSPYTFGQGTKVEIK

The assay deals with T1, human C5 (human, UniProt P01031 19-673; P01031 678-1676, Beta and alpha chains are disulfide-linked and the protein is glycosylated.).
T1 construct: Either in-house recombinant C5 or plasma derived C5 (CALBIOCHEM) was used; also called recombinant human C5; plasma derived human C5
Nature of the assay: Biacore, captured antibody, pH 7.4, 37 C.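 Also: biacore binding response of anti-C5 antibody light chain variants captured on chip with human C5 injected, ACES running buffer containing 1.2 mM CaCl₂, parent light chain antibody set to 100.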 On the technique in general: SPR reads the build-up and loss of mass on a sensor chip optically.
Method: The light chain variants were tested for the binding affinity to C5 at pH 7.4 and at 37 degrees C. using Biacore T200 instrument (GE Healthcare) or Biacore 4000 instrument (GE Healthcare). […] Anti-C5 antibodies were captured on an immobilized molecule, and then human C5 was injected. The running buffer used was pH 7.4 ACES Buffer containing 1.2 mM Ca (20 mM ACES, 150 mM NaCl, 1.2 mM CaCl₂, 0.05% Tween 20). A value, % binding, was determined by normalizing binding response with that of antibody comprising parent light chain as 100.
Regarding B1, the “% binding (parent = 100)” value turned out to be 56%. For the molecule B2, the “% binding (parent = 100)” value stood at 1.1%.

With B3, the “% binding (parent = 100)” value worked out at 207%.

As to B4, the “% binding (parent = 100)” value was determined as 4%. For the molecule B5, the “% binding (parent = 100)” value stood at 3.6%. With B6 the figure was -0.7%. B7: the “% binding (parent = 100)” value stood at 5.4%.

On to B8, for which the “% binding (parent = 100)” value was 11.7%.

The values above are taken from patent US20180016327A1 (Chugai, published 2018).
